Reference: the DeepSol protein solubility set

Assay: soluble on expression in E. coli; label from the status in PepcDB or PDB records

Sequence	soluble on expression in E. coli
MKVFLYDTNLILASRVRSLLSSQGFEISDKEEACAGVVNLESPKGLEVVKELKEKGKKVVGYCGHKNVPLIQKAKELGVDEVIPNSQVVTSLGEILKKLCS	not soluble
MFRISQLLKTLHDDMAELKPVKASRKMKGPVVIWNLIRRCNLQCKHCYSTSLDIDFKDELSTEQVKTTIDDLKVAHVPVLILSGGEPLLRPDIYEITEYAKQKGFYLALSTNGTLINEDNIEAIKAAEYQYVGISIDGLEEFHDEFRRQKGSFKTSMHAIKLCKDAGIKVGMRLCLTRENFKDLPAMLNLMEENSVDKFYLSHLNYSGRGKRTAENDAMFKMTKDAMELLYERAWTHINQGIETDFVTGNNDADGPFLLQWASKQFAEEYPEAIANLKQRLINWGGNSSGINVANIDNTGTIHPDTYWWNHPIGNVTTEKFSDVWRDTQDPLMLGFRQTPRPVKGRCASCEHLAICGGNTRTRAFAQSGDAWAEDPGCYLDDDEIGFIPSPSKFADELTNTENPIQFVEV	not soluble
EIAVIGAAGKTGAAVVAALEGLDDVRRVVHTARRAGDFAVDLETGAGLDKALSGCRGVYFIAPNVHPDEPALLRNTMRAAASVGVDHFVYHSVAWPYTPLMPHHVDKARCEDELRTFGGLRWTVLQPCAYAENFGAVLAGTATTVELPYSPDAAFSFVALADVAEVGARVLVEGPDIHHGATYELGGPEALSVRDLCDRAGGPVSVKQVSVDEWMSRHGRDLTDDGRARLSAMFEFYDRYGFL	not soluble
MGSDKIHHHHHHTYTPGTMGEGVVYYLPKTEIELQVTATKVVYTPGEFCQYADRYLRLTGISSQPEEHWEINSIKVNSIGIPDPDNAYAVKLKDKSAASQVELTPEGIIKAINTTSPIEKAPVTKVADTVKKRIDPRSFMTEEILIAGSTAKMAELVAKEIYNIRESKNSLTRGQADYMPKDGAALKLMLDNLDEQEQAMMQMFAGTTDRIEKSFTIRIKPEADMKEKVAFRFSKKLGMLDADNLSGEPYYISIVNQETLPPMDPKGKEKKKTDGVIYNIPGKAQVTVFTPNKRYFDGELPVTQFGTTECLIDNLFNKKVNTRVIFNPNTGGIVKIDKD	not soluble
MIFTTQVKYTYDTLSTFPEDMPSREGFTLISDHFGAGMLAPMEVVVNSKESMKSSLENVNGVASVTGPERSKGYQKYTLILKDNPYSNEAMDVVPKVRAAADKGNDVYIAGQTATQYDDRAVTEHDEKVIIPLEHHHHHH	soluble
MSLETFTGIRYETAVERVANGGFTDLPRQIEWRKALAAFQSAPIFGHGWNSFAQQTFLINAEQHNIHDNLLSNLFTHSHNIVLQLLAEMEGHHHHHH	not soluble
MSLLRAIIVDNEEPATQILQMLLEKTGQIRVVGTFLRAADALSSLRLTKPDVAFLDIEIPDTSGLELANHILAMDSDVEIIFVTAYDHYALHAFRVNALDYLLKPLLPEDVERAVRRLIKRKGLAKDSAPESPLGANIHYFGKFSVYGPASKKPVKWRTSKAEELFAYLVQNLEKEVPKWRICEALWPEYHSEKVDIQLHTTVYKLKKVLTAANIPFDLSFSNGCYWLSLPQAAIDKVEFDAHIASSVPVNQSTIARCEHALSLYTGDYLEENGYLWSLALKAEYGQKFYKLASSVVNFYMTQGDWVRAEKILRSILERCPLDETVHEMLLTCYFTQKDRTAFITHYHTVRKLFQAELGLEPGKSIQTLYHSLLKRMDEGHHHHHH	soluble
SRAMPASLSTAALRSDNVSPVDPLGVQREFDHYVSVLRDRLGLQVVMLPADEELPDCVFVEDTAVVCGSTALITRPGAPSRRSETVAMKGALTELGLNIVEMNDESATMDGGDVLFTGKEFFVGLSKRTNQRGAEILANTFKDYAVSTIPVEEGLHLKSFCSMAGPNLIAIGSSDAAQKALKVIQQMSDCKYEKLTVPDDRAANCVYMNLPGKGDVLLHCTPEVFPESAKVFERLKSHMLIPVSNQEKMKVDGALTCLSVLLRI	soluble
MSLSKSDDGDSEESFSISVQSGFEAMSQELCIVMCLKDLTSIVDIKTSSRPAMIGSLTDGSTETFWESGDEDKNKTKNITINCVKGINARYVSVHVDNSRDLGNKVTSMTFLTGKAVEELCRIKQVDLDSRHIGWVTSELPGGDNQIIKIELKGPENTLRVRQVKVLGWKDGESTKIAGQISASVAQQRSCEAETLRVFRLITSQVFGKLISGDAEEGHHHHHH	soluble
MGSDKIHHHHHHMRELPPLDLYETEAAERAGMAAGEPSAGDVELPAEPLLAGEARGQPFTRQSVAPLATIDLSTVPADDVTPRRWIVPDLIPDRNVTDISGDGGLGKSLLALQLGIAMAAGRDWLGTMPEPGGFLYVSCEDEPNEVLRRRNAVLAGMGLTPGDIRNLYLADLTDAEGTELAAPGKAALELTALHHRFEVTIRQLRPKCAVLDTRADVFGGNELSRVQVRMFVRSLRRLCIAHDMAIILLSHPSVSGMASGSGQSGSTGWGNSVRSRLYLTAPKSEGDTDLDPDIRILSSKKANYGPHGAEIVLRWDRGMFRPDRDALASLDRDQQDREIEVTFLQLLSKREKEGRRANASSGPNYAPKVLAEMNGTISRAKFRGAMERLFAKEEIASVSYEANGKGSTQLVLTDKGMSRLRIPF	not soluble
MSLSHTANPCCSHPCQNRGVCMSVGFDQYKCDCTRTGFYGENCSTPEFLTRIKLFLKPTPNTVHYILTHFKGFWNVVNNIPFLRNAIMSYVLTSRSHLIDSPPTYNADYGYKSWEAFSNLSYYTRALPPVPDDCPTPLGVKGKKQLPDSNEIVEKLLLRRKFIPDPQGSNMMFAFFAQHFTHQFFKTDHKRGPAFTNGLGHGVDLNHIYGETLARQRKLRLFKDGKMKYQIIDGEMYPPTVKDTQAEMIYPPQVPEHLRFAVGQEVFGLVPGLMMYATIWLREHNRVCDVLKQEHPEWGDEQLFQTSRLILIGETIKIVIEDYVQHLSGYHFKLKFDPELLFNKQFQYQNRIAAEFNTLYHWHPLLPDTFQIHDQKYNYQQFIYNNSILLEHGITQFVESFTRQIAGRVAGGRNVPPAVQKVSQASIDQSRQMKYQSFNEYRKRFMLKPYESFEELTGEKEMSAELEALYGDIDAVELYPALLVEKPRPDAIFGETMVEVGAPFSLKGLMGNVICSPAYWKPSTFGGEVGFQIINTASIQSLICNNVKGCPFTSFSVPDPELIKTVTINASSSRSGLDDINPTVLLKERSTELEGHHHHHH	not soluble
MSLSELARRLNQCKKPVGDQGKVVVDDMNERHYELTGWGLDKIKIDKAYKMLDIGCGGGRTVNRLSKAAEEGEVYGIDYSSDCVRWASEYNKELIKEGRVHISEASVEKLPFEDNKFDVVTAVETIYFWPNVEENIKEVNRVLKKGGKFIIINEIYDDDKFRERNNEFAKNSNMKIYSPEKLKSLLKNAGYLNVEMEIKEENNWICYVSEKEGHHHHHH	soluble
MLLEIKDLVYKASDRIILDHISLKVDKGESIAIIGPSGSGKSTFQKQICNLFSPTSGELYFKGKPYNDYDPEELRQRISYLMQQSDLFGETIEDNMIFPSLARNDKFDRKRAKQLIKDVGLGHYQLSSEVENMSGGERQRIAIARQLMYTPDILLLDESTSALDVNNKEKIENIIFKLADQGVAIMWITHSDDQSMRHFQKRITIVDGQISNTEELNQHE	soluble
MAHHHHHHMNINKILFSKVGEVVKNGNGGMNMQQGASQLLSGKKLIYISKPTHGGFIYWKCRELIHTIKKKTKRCARYLDINHDFSRAALVGVPKTSYDPKNNIFYIQMDNEEWAGNFYKNGPSGVLMWGVMFFAKVCKMGKNALHTIRAAPFGRFAE	not soluble
MRKELVFVLLALFLCAGCNGNKKKMNGEHDLDAANITLDDHTISFYYNWYGNPSVDGEMKHWMHPIALAPGHSGDVGAISGLNDDIACNFYPELGTYSSNDPEIIRKHIRMHIKANVGVLSVTWWGESDYGNQSVSLLLDEAAKVGAKVCFHIEPFNGRSPQTVRENIQYIVDTYGDHPAFYRTHGKPLFFIYDSYLIKPAEWAKLFAAGGEISVRNTKYDGLFIGLTLKESELPDIETACMDGFYTYFAATGFTNASTPANWKSMQQWAKAHNKLFIPSVGPGYIDTRIRPWNGSTTRDRENGKYYDDMYKAAIESGASYISITSFNEWHEGTQIEPAVSKKCDAFEYLDYKPLADDYYLIRTAYWVDEFRKARSASEDVQLEHHHHHH	soluble
MKYCDFNGCHNKISKGRYCEEHKRNKPRKKKDKKNIYHHENKPFYRTDAWKFVRSKVYERENGCCQRCGRFVFGRRAHVHHVIPIKEDPILKLEENNLRLLCPVCHTIEENEDKPKKVFPSYFGSPPIKNLEHHHHHH	soluble
MINRRYELFKDVSDADWNDWRWQVRNRIETVEELKKYIPLTKEEEEGVAQCVKSLRMAITPYYLSLIDPNDPNDPVRKQAIPTALELNKAAADLEDPLHEDTDSPVPGLTHRYPDRVLLLITDMCSMYCRHCTRRRFAGQSDDSMPMERIDKAIDYIRNTPQVRDVLLSGGDALLVSDETLEYIIAKLREIPHVEIVRIGSRTPVVLPQRITPELVNMLKKYHPVWLNTHFNHPNEITEESTRACQLLADAGVPLGNQSVLLRGVNDCVHVMKELVNKLVKIRVRPYYIYQCDLSLGLEHFRTPVSKGIEIIEGLRGHTSGYCVPTFVVDAPGGGGKTPVMPNYVISQSHDKVILRNFEGVITTYSEPINYTPGCNCDVCTGKKKVHKVGVAGLLNGEGMALEPVGLERNKRHVQE	soluble
MPINAAYRGPADLPEVIPVFPLAGALLLPRGQMPLNIFEPRYLAMIDDALRDGHRLIGMIQPDAAHSSETAEKPSLFNVGCVGRITQLAESGDGRYILELTGVSRFKVVDELQVLTPYRQCKVDYFPFGDDFTARKGEDEVDRETLLSVLTDFLKANNLKVDWDGVESAPNEALVNALAMMSPYGPPEKQALLEAPDLKTRAEILIAVTEMDLAKKRTSGDPPLQLEHHHHHH	not soluble
MGSDKIHHHHHHMENERKRILELVKQGIISTEEALTLLENISKKEGKTAAKENIRRSAAPREEEQVEEETKEEPSYDYSKGWNNQGNPYTPPKSRKRRPEPTPENHERDEEEGGENSSKDREDSMRNMVNDLSQAGEKIGSFLNSAFKQVKDMPFPFLTSTKIERDFIYHDTTLSILEFEIANGNIEFKPSDSNDIKVHAMIKLFKEYPEDEALKIFFDKTTLRVDEETLRFESKSKQIVTNLTVYLPRREYDYVSVKMLNGNFHMDELSGRDLFVKTTNGNISIGTLNATLAEIESINGNVRIQNGEIRDVALKTFNGNVAVKGNYYSTNLQTKNGNVNYQLTGNEATFLKAKTGAGNIDVVVPAAIGVDGRFHTNLGKLLLDLKDAEILESKTESVSKSIIFTKLPDAADSSLKIEAEATTGSVKIRDVK	not soluble
MSLDKIRYGIMSTAQIVPRFVAGLRESAQAEVRGIASRRLENAQKMAKELAIPVAYGSYEELCKDETIDIIYIPTYNQGHYSAAKLALSQGKPVLLEKPFTLNAAEAEELFAIAQEQGVFLMEAQKSVFLPITQKVKATIQEGGLGEILWVQSVTAYPNVDHIPWFYSREAGGGALHGSGSYPLQYLQYVLGKEIQEVTGTATYQQGATDSQCNLALKFAEGTLGNIFINVGLKIPSEMTICGTKGQIVIPNFWKTDCAYYTDAQGNTVKWSEQFTSEFTYEINHVNQCLQDKKLTSPVMTKELTIATVKIVESFYQEWFDNEGHHHHHH	soluble
MQESAQFFNDTGVSMSMQGFHNEAIACLKKGLALEPDNSLMWLNLGLSYYAAKRQNDSKFALFQSLKYNPYEADAWDSLGLVLFETGDIDQAERAFESAIKLEPENGRVWNNYGTVLFNKENYRAARRAFESAVTLDPEMGDAVFNLRDTYLELGMNDLAERCNKILKEMDYQE	not soluble
